{"source": "patent US20050048594", "proteins": {"B1": {"name": "serine/threonine p21-activated kinase PAK4 (protein)", "chain": "SPQREPQRVSHEQFRAALQLVVDPGDPRSYLDNFIKIGEGSTGIVCIATVRSSGKLVAVKKMDLRKQQRRELLFNEVVIMRDYQHENVVEMYNSYLVGDELWVVMEFLEGGALTDIVTHTRMNEEQIAAVCLAVLQALSVLHAQGVIHRDIKSDSILLTHDGRVKLSDFGFCAQVSKEVPRRKSLVGTPYWMAPELISRLPYGPEVDIWSLGIMVIEMVDGEPPYFNEPPLKAMKMIRDNLPPRLKNLHKVSPSLKGFLDRLLVRDPAQRATAAELLKHPFLAKAGPPASIVPLMRQNRTR"}}, "biological_target": "T1, peptide ARKRERAF(3-CF3)SFGHHA", "T1 chain": "ARKRERAFSFGHHA", "data": [{"protein": "B1", "values": [{"measurement": "phosphorylation of the peptide followed by 19F NMR (150 nM PAK4)", "result": "the reaction in the presence of PAK4 results in the appearance of a 19F signal with a chemical shift similar to the shift of a phosphorylated peptide"}, {"measurement": "speed of the enzymatic reaction relative to AKT1", "result": "The speed of the enzymatic reaction of PAK4 is only 1/22 of the speed of AKT1"}]}]}
